The results in this text go back to CN112574305A (UNIV TSINGHUA RES INST SHENZHEN, dated 2021).

One assay has as its target T1, mBDNF (UniProt P23560 129-247, limits assumed).
T1 construct: mature; also called 成熟BDNF
T1 sequence (looked up): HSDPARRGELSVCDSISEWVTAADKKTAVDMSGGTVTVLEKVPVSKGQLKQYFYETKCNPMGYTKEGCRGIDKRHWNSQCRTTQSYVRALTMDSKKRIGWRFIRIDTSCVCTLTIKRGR
The experiment in a line: ELISA, mBDNF coated at 2 μg/ml, purified antibody added, OD450. A general note: In an ELISA, binding on a coated surface is turned into a signal by an enzyme label.

In another assay the target is T2, ProBDNF.
T2 sequence (peptide): CDQKVRPNEENNKDA
The assay can be described thus: ELISA, OD450.

B1: 抗ProBDNF抗体 (antibody, IgG2b, V domains shown)
VH: QVQLQQSGPELVKPGASVTISCKTSAYGFSSSWMNWVKQRPGQGLEWIGRIYPGDGETNYNGKFMGKATLTADKSSNTVYMHLSSLTSVDSAVYFCTRRELVYWGQGTLVTVSA
VL: DIVLTQSPASLAVSLGQRATISCRTSESVDTYGNSFIHWYQQKPGQPPKLLIYRASRLESGIPARFSGSGSRTDFTLTINPVEADDVATYYCQQSYEDPWTFGGGTKLEIK
notes: Mouse hybridoma antibody, made recombinantly in 293 cells; also called 针对前体脑源性神经营养因子的抗体; 实施例2提供的纯化抗体
As for B1, the binding result with mBDNF was “no binding”. In addition, the 抗原浓度 (lowest antigen concentration detected) with ProBDNF is 1.95 ng/mL.
